# Target: BTN2A2-His tag protein (without Fc tag) (human) (UniProt Q8WVV5)
# Assay: MST
substance,measurement,value
recombinant CD45RO-Fc protein (from UniProt P08575-4 26-1145) (Fc fusion),Kd,63.5 nM

# — paper PMC12873404
